Experimental data from the supplement of paper PMC7877785.
± gives the uncertainty stated by the source.

Assay: self-splicing fitness, log relative to wild type (ln ratio); higher = more splicing; Tetrahymena group I intron in knt gene, E. coli kanamycin selection, DiMSum; sequences stand for … in CUCUCU…GGAGGGAAAAGUUAUCAGGCAUGCACCUGGUAGCUAGUCUUUAAACCAAUAGAUUGCAUCGGUUUAAAAGGCAAGACCGUCAAAUUGCGGGAAAGGGGUCAACAGCCGUUCAGUACCAAGUCUCAGGGGAAACUUUGAGAUGGCCUUGCAAAGGGUAUGGUAAUAAGCUGACGGACAUGGUCCUAACCACGCAGCCAAGUCCUAAGUCAACAGAUCUUCUGUUGAUAUGGAUGCAGUUCACAGACUAAAUGUCGGUCGGGGAAGAUGUAUUCUUCUCAUAAGAUAUAGUCGGACCUCUCCUUAAUGGGAGCUAGCGGAUGAAGUGAUGCAACACUGGAGCCGCUGGGAACUAAUUUGUAUGCGAAAGUAUAUUGAUUAGUUUUGGAGUACUCGUGGUCG
Method in brief: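 Six replicate transformations of E. coli BL21(DE3) with a pET-22b(+) library were grown overnight at 37°C or 30°C. The library randomised all eight P1ex-region intron nucleotides, the intron lying in the knt kanamycin-resistance gene, and plates were LB agar with or without 25 μg/mL kanamycin plus 100 μg/mL carbenicillin, 50 μM IPTG and 0.2% rhamnose. Pooled colonies were amplicon-sequenced on an Illumina HiSeq 2500, and fitness is the DiMSum error-weighted combination of wild-type-normalised replicate fold changes, kanamycin versus none.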

Sequence | self-splicing fitness (ln) (30 °C) | self-splicing fitness (ln) (37 °C)
CACAAGCAAUAUUACGGAAG | -0.736 ± 0.055 | -0.887 ± 0.072
AGCGAGCAAUAUUACGGCCC | -1.03 ± 0.28 | -0.383 ± 0.24
CCGAAGCAAUAUUACGGAGC | -1.9 ± 0.33 | -2.74 ± 0.44
GACCAGCAAUAUUACGUGUU | -3.73 ± 0.096 | -2.44 ± 0.11
UCUUAGCAAUAUUACGCACU | -2.05 ± 0.33 | -0.732 ± 0.36
GGCAAGCAAUAUUACGCCCG | -2.21 ± 0.45 | –
AGAUAGCAAUAUUACGUUGU | -2.26 ± 0.08 | -2.39 ± 0.11
AGAUAGCAAUAUUACGAUCU | -1.53 ± 0.14 | -0.462 ± 0.17
UGCCAGCAAUAUUACGACAU | -3.366 ± 0.021 | -1.9 ± 0.035
CCCGAGCAAUAUUACGAAAG | -3.74 ± 0.27 | -1.7 ± 0.36
CCUAAGCAAUAUUACGGUGU | -4.62 ± 0.23 | -1.89 ± 0.16
GGGCAGCAAUAUUACGGGUU | -1.58 ± 0.12 | -0.384 ± 0.12
AAAUAGCAAUAUUACGAGGA | -2.72 ± 0.19 | -1.88 ± 0.18
GUUUAGCAAUAUUACGCUGA | -3.66 ± 0.33 | -1.6 ± 0.23
UUCGAGCAAUAUUACGAAGC | -2.63 ± 0.33 | -1.91 ± 0.36
CCCGAGCAAUAUUACGUAAG | -3.63 ± 0.2 | -2.77 ± 0.18
ACGCAGCAAUAUUACGCUUA | -0.737 ± 0.089 | -0.286 ± 0.099
UCCGAGCAAUAUUACGCGAU | – | -2.3 ± 0.35
CCUAAGCAAUAUUACGAUUG | -3.51 ± 0.19 | -1.68 ± 0.13
AUUCAGCAAUAUUACGCAUC | -2.75 ± 0.16 | -0.806 ± 0.16
UAUGAGCAAUAUUACGGGCG | -2.75 ± 0.16 | -2.12 ± 0.2
UGCCAGCAAUAUUACGACGG | -3.23 ± 0.12 | -1.42 ± 0.13
GUUCAGCAAUAUUACGGACA | -1.59 ± 0.18 | -1.02 ± 0.16
AUACAGCAAUAUUACGUUAA | -3.26 ± 0.18 | -1.41 ± 0.11
CGAUAGCAAUAUUACGGACU | -1.28 ± 0.095 | -0.496 ± 0.11
AAUGAGCAAUAUUACGCCAC | -1.83 ± 0.22 | -2.41 ± 0.49

Sequence | self-splicing fitness (ln) (30 °C) | self-splicing fitness (ln) (37 °C)
AUUGAGCAAUAUUACGAUCC | -1.32 ± 0.4 | –
GUAGAGCAAUAUUACGGCAU | -0.0916 ± 0.085 | 0.127 ± 0.12
GGGGAGCAAUAUUACGUAGG | -2.68 ± 0.2 | -1.85 ± 0.21
UUUAAGCAAUAUUACGCAUA | -3.17 ± 0.2 | -0.829 ± 0.14
UGCAAGCAAUAUUACGCGGU | -3.01 ± 0.23 | -2.25 ± 0.21
CUAGAGCAAUAUUACGGGAU | -2.94 ± 0.17 | -1.96 ± 0.23
CUUCAGCAAUAUUACGUAUA | -3.15 ± 0.27 | -1.98 ± 0.2
GAGUAGCAAUAUUACGUGUG | -2.73 ± 0.11 | -1.87 ± 0.12
AUCGAGCAAUAUUACGGGAU | -2.82 ± 0.15 | -1.78 ± 0.19
GUAGAGCAAUAUUACGUUGC | -4.29 ± 0.3 | -3.11 ± 0.24
ACUUAGCAAUAUUACGAGCC | -2.49 ± 0.3 | -1.26 ± 0.31
UUACAGCAAUAUUACGGCUU | -1.13 ± 0.082 | -1.35 ± 0.1
UUUCAGCAAUAUUACGCGAU | -3.39 ± 0.15 | -2.47 ± 0.16
GCUUAGCAAUAUUACGGACA | -0.409 ± 0.13 | -1.15 ± 0.13
UACAAGCAAUAUUACGUGUA | -3.33 ± 0.15 | -2.69 ± 0.14
UUGUAGCAAUAUUACGAAUA | -1.74 ± 0.15 | -1.64 ± 0.14
CAUUAGCAAUAUUACGGGGG | -2.52 ± 0.21 | -1.19 ± 0.15
CUACAGCAAUAUUACGACUA | -2.2 ± 0.23 | -2.38 ± 0.35
CUCGAGCAAUAUUACGCGUU | -3.72 ± 0.31 | -0.305 ± 0.2
AGAUAGCAAUAUUACGUGUA | -2.9 ± 0.14 | -1.82 ± 0.12
CGUAAGCAAUAUUACGCCCA | -1.83 ± 0.19 | -0.135 ± 0.24
CGCAAGCAAUAUUACGCCUA | -0.46 ± 0.094 | -0.653 ± 0.1
GGUUAGCAAUAUUACGGGAG | -3.49 ± 0.24 | -2.55 ± 0.25
CUUGAGCAAUAUUACGUCUU | -4.1 ± 0.21 | -2.48 ± 0.2
CCAAAGCAAUAUUACGGUUU | -3.21 ± 0.12 | -2.34 ± 0.15
UAGUAGCAAUAUUACGAGAA | – | -1.76 ± 0.43

Sequence | self-splicing fitness (ln) (30 °C) | self-splicing fitness (ln) (37 °C)
ACCGAGCAAUAUUACGCUCC | -2.85 ± 0.39 | -1.79 ± 0.44
GUUCAGCAAUAUUACGGAAU | -2.45 ± 0.19 | -2.46 ± 0.27
GCUGAGCAAUAUUACGAACU | -2.49 ± 0.33 | -0.576 ± 0.21
AAUCAGCAAUAUUACGGCAC | -0.508 ± 0.086 | -0.24 ± 0.12
CGGCAGCAAUAUUACGCGCA | -0.939 ± 0.097 | -0.247 ± 0.1
CUUGAGCAAUAUUACGCGAC | -3.55 ± 0.28 | -0.595 ± 0.16
CGCGAGCAAUAUUACGUGAG | -4.51 ± 0.39 | -2.54 ± 0.32
CUAUAGCAAUAUUACGAUCG | -0.256 ± 0.075 | 0.439 ± 0.1
GGCCAGCAAUAUUACGCGGC | -3.46 ± 0.24 | –
CCCGAGCAAUAUUACGCAGU | -2.82 ± 0.16 | -2.64 ± 0.18
UCGCAGCAAUAUUACGUUCA | -0.883 ± 0.07 | 0.0196 ± 0.064
ACCUAGCAAUAUUACGCACU | -0.127 ± 0.085 | 0.3 ± 0.12
GCUAAGCAAUAUUACGAUGC | -3.28 ± 0.19 | -2.18 ± 0.18
CCUCAGCAAUAUUACGUUUA | -4.17 ± 0.2 | -2.57 ± 0.14
UUAAAGCAAUAUUACGUAUA | -1.26 ± 0.12 | -0.271 ± 0.14
CGACAGCAAUAUUACGUAUG | -1.26 ± 0.076 | -1.36 ± 0.1
GCCAAGCAAUAUUACGCGAG | -2.43 ± 0.11 | -2 ± 0.17
UAGCAGCAAUAUUACGUGCC | -1.84 ± 0.17 | -1.2 ± 0.21
ACCUAGCAAUAUUACGCUCA | -1.71 ± 0.14 | -0.169 ± 0.17
CUGCAGCAAUAUUACGAGGU | -3.65 ± 0.14 | -3.53 ± 0.2
GCAAAGCAAUAUUACGUUCU | -1.44 ± 0.094 | -0.638 ± 0.097
GCUAAGCAAUAUUACGCCAA | -2.35 ± 0.33 | -1.74 ± 0.41
CCGCAGCAAUAUUACGAGAA | -3.07 ± 0.28 | -2.24 ± 0.31
GCAAAGCAAUAUUACGGAGA | -2.82 ± 0.45 | –
AAUUAGCAAUAUUACGCCCU | 0.0273 ± 0.1 | -0.313 ± 0.13
